In the supplement of paper PMC9170038:

Test system: MS2 coat protein
Experiment: apparent KD of MS2 coat protein; designed switch direction (-1 OFF switch, 1 ON switch): 1; higher = weaker reporter binding
Method in brief: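 An oligonucleotide input, 200 uM small-molecule ligand, or no input was present during titration of SNAP-549-labelled MS2 coat protein, which was doubled from 0.7 or 1.5 nM to 3 µM. Designed RNA switches had been transcribed on Illumina chips by stalled E. coli RNA polymerase. Apparent KD per design is the median over clusters of curves fitted to normalised cluster fluorescence.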

[1] = input ligand: microRNA oligo, concentration not stated
[2] = Eterna round: R95, input ligand: microRNA oligo, concentration not stated
[3] = Eterna round: R95, input ligand: FMN 200 uM
[4] = Eterna round: R95, input ligand: none

| Sequence | apparent KD of MS2 coat protein [1] | apparent KD of MS2 coat protein (input ligand: FMN 200 uM) | apparent KD of MS2 coat protein (input ligand: none) | apparent KD of MS2 coat protein [2] | apparent KD of MS2 coat protein [3] | apparent KD of MS2 coat protein [4] |
| --- | --- | --- | --- | --- | --- | --- |
| UAAAUACAUGAGGAUCACCCAUGUCAAAAGACAUGAGGAUAUGUACAGACUUCGGUCUGUACAGAAGGCAUGAAAA [salish99_ss1_r3_095] (Eterna round: R96, puzzle: Same State 1) | 0.397 µM |  |  |  |  |  |
| GCUCGAUGUGCUGUCUACAUGAGGAUCACCCAUGUAGAUGCGGAGGAUAUCUACGUGCUUUAUGUAGAGAAGGUCGUAUCGAGC [SameState NG3 #84] (Eterna round: R96, puzzle: Same State NG 3) | 0.0502 µM | 0.0525 µM | 0.0904 µM |  |  |  |
| UAUGAACAUGAGGAUCACCCAUGUGGUAAGAUCACAGGAUAUCACCUCGGACGUGCGAUGUGAGAAGGGUGAUGGU [Same State 1 - Mod of Vinnie Anrelari v.2] (puzzle: Same State 1) |  |  |  | 0.419 µM |  |  |
| AAACCCAGUCUGUAGGAUAUGCACCUGCCGACAUGAGGAUCACCCAUGUACCCUAACAACAGCGUGCAGAAGGGCAGCAAUAAAA [Verilara] (puzzle: Same State 2) |  |  |  | 0.0229 µM | 0.0192 µM | 0.0263 µM |
| UUUAGAUCGCGAGGAUAUCGCGAGGAUCACCCGUGAGAAGGCGCAGAGCCGAGGAUCACCCGGCUGAUCCUGAGAAGGAGGUCA (Eterna round: R96, puzzle: Same State NG 1) | 0.206 µM | 0.0917 µM | 0.25 µM |  |  |  |
| UCUUGGUUUUUGCUCGUUUUUUGUGUUGAACAUGAGGAUCACCCAUGUAUUGUACAAUCCAGUUUGAUAAUGGUCCG [JR_SHM208A_Sub045] (puzzle: Sensor for hsa-mir-208a) |  |  |  | 0.112 µM | 0.14 µM | 0.167 µM |
| AGAGGAGGAGCAGGAUAUGCGAAGAAGAACGAGGUAGAAGGGCUCAUGCGAUGACAUGAGGAUCACCCAUGUACCGCGCGAGGA [AK SSNG1-V2-8.2] (Eterna round: R96, puzzle: Same State NG 1) | 0.209 µM | 0.207 µM | 0.142 µM |  |  |  |
| GAUUAACAUGAGGAUCACCCAUGUCGUUUAAUGGGAGGAUAUACGUGGACCGUAGUCCGCGUAGAAGGCCUAAUUG [JL-ss1-3.22 janelle mod] (puzzle: Same State 1) |  |  |  | 0.0761 µM |  |  |
| UGAAUAGUUACAGGAUAUGAGUUGUAAAUUGGGUCAGAAGGGUGGGUGUUUUGCGCGGUGUGUUACAUGAGGAUCACCCAUGUU [SameState NG1 #28] (Eterna round: R96, puzzle: Same State NG 1) | 0.0751 µM | 0.0818 µM | 0.122 µM |  |  |  |
| UAUUAAUCUGUAGGAUAUGUAGGAUAUGGACGAGGAUCACCCGAGCAGCAUCAGCGCACCAGAGGACAGAAGGACGGCCGGGUG [pwkr ssNG2 2F5 2FMN.24] (Eterna round: R96, puzzle: Same State NG 2) | 0.411 µM | 1.67 µM | 0.177 µM |  |  |  |
| GCUACCAUUGAAGCCAACAUGAGGAUCACCCAUGUAUGUUGGUAGGAUAUCGAUUGCAAAGCGAUCGAGAAGGGCUAAGGUAGC [Mat - Same State NG 3 - JL Mod - D81] (Eterna round: R96, puzzle: Same State NG 3) | 0.0574 µM | 0.0813 µM | 0.0668 µM |  |  |  |
| UAACAGUACAAUUUAGAUCUACAUGAGGAUCACCCAUGUACUGAGGAUAUCAGCUCGAUUAGAGCUGAGAAGGCAGAAGAACUA [SSNG3/11-A2] (Eterna round: R96, puzzle: Same State NG 3) | 0.173 µM | 0.0485 µM | 0.344 µM |  |  |  |
| GGAAACAGAGGAGGAUAUGCAGAGGAUCACCCUGUAGAAGGCCUCGAAAGGAGGAUAUGCAGAGGAUCACCCUGUAGAAGGCCU [pwkr ssNG DX.26] (Eterna round: R96, puzzle: Same State NG 1) | 0.156 µM | 0.0721 µM | 0.208 µM |  |  |  |
| GUUACAUGAGGAUCACCCAUGUAUGUGUGGGAGUAAGUGUCUUAGGAUAUCUAUUAUUUAAAUUAAGAGAAGGAAGAUUGUUGU [JMF's solution 7] (Eterna round: R96, puzzle: Same State NG 3) | 0.093 µM |  |  |  |  |  |
| GCUCGAUGAGCGGUUUACAUGAGGAUCACCCAUGUAAAUGGGCAGGAUAUUUACGUGCUUUGUGUAGAGAAGGGCCCAUCGAGC [SameState NG3 #75] (Eterna round: R96, puzzle: Same State NG 3) | 0.0474 µM | 0.0181 µM | 0.112 µM |  |  |  |
| AGUCCAGCCUGAGCUGGACAAAAGCAUGUACAUGAGGAUCACCCAUGUCAUGUACAAGCUUUUUGCUCAUCUUAAAA [Mat - hsa-mir-208a - Mod of JL - D11] (puzzle: Sensor for hsa-mir-208a) |  |  |  | 0.0164 µM | 0.624 µM | 0.922 µM |

| Sequence | apparent KD of MS2 coat protein [1] | apparent KD of MS2 coat protein (input ligand: FMN 200 uM) | apparent KD of MS2 coat protein (input ligand: none) | apparent KD of MS2 coat protein [2] | apparent KD of MS2 coat protein [3] | apparent KD of MS2 coat protein [4] |
| --- | --- | --- | --- | --- | --- | --- |
| GCGAGCGUACUUGCAACAUGAGGAUCACCCAUGUUAACUGGACAGGAUAUGGUACCGUUUCGGUACCAGAAGGGUUCCUCAAUG [JL SSNG3 3.62] (Eterna round: R96, puzzle: Same State NG 3) | 0.116 µM | 0.295 µM | 0.214 µM |  |  |  |
| GGUCCAGCCUGAGCUGGACUACAGCAUGUACAUGAGGAUCACCCAUGUCAUGUACAAGUAUGUUGUUUGUCUUAAAA [Sensorship 7 - Jieux - Sensor for hsa-mir-208a] (puzzle: Sensor for hsa-mir-208a) |  |  |  | 0.0375 µM | 0.0808 µM | 0.108 µM |
| UGUUGUAUUACAGGAUAUCUAUGAUUUUUUUUUAGAGAAGGGUAUUCACAUGAGGAUCACCCAUGUAUAUACGAGGAAGUUGUG [JMF's solution 65] (Eterna round: R96, puzzle: Same State NG 1) | 0.0398 µM |  |  |  |  |  |
| UUAUCCUUUUUUUACAUGAGGAUCACCCAUGUUUUUCUUACGUAGGAUAUCGUUGUUUUUUUUUACGAGAAGGACGUAGUAAGA [JR_SSND3_Sub061] (Eterna round: R96, puzzle: Same State NG 3) | 0.0319 µM | 0.0413 µM | 0.0371 µM |  |  |  |
| AACAGACAUGAGGAUCACCCAUGUAGAAUUAUGGGAGGAUAUACAAAGACGAGAGUCAGAGUAGAAGGCCUAGGAC [salish99-ss1-163] (Eterna round: R96, puzzle: Same State 1) | 0.0422 µM | 0.0243 µM | 0.0517 µM |  |  |  |
| UAGACAAGCUUUAUGUUCUUCCUUUUCCUACAUGAGGAUCACCCAUGUAGUCUGUCGAUUGUGAGUGUAGUUGAGAU [JR_SHM208A_Sub025] (puzzle: Sensor for hsa-mir-208a) |  |  |  | 0.016 µM | 0.0187 µM | 0.0187 µM |
| UGCUACGGAGACAUGAGGAUCACCCAUGUCGCUGCUUAAGGGCAGGAUAUGAAAGGGAAUCCCAAUCAGAAGGGCCGCAGCCAC [Isanxeanor] (Eterna round: R96, puzzle: Same State NG 3) | 0.0228 µM | 0.0353 µM | 0.0326 µM |  |  |  |
| GCUAGGAUUAAAGCCAACAUGAGGAUCACCCAUGUAUGUUGGUAGGAUAUCGUUUGCAAAGCAAACGAGAAGGGCUAACCUAGC [Mat - Same State NG 3 - JL Mod - D67] (Eterna round: R96, puzzle: Same State NG 3) | 0.073 µM | 0.0883 µM | 0.0926 µM |  |  |  |
| CUGUGUUGCGGGCAGGAUAUGUAUUGGGAUACAUGAGGAUCACCCAUGUGCGGGUGUUUCACCCGACAGAAGGGCCAAUCGCGAC [JL-ss2-3.22 ViennaUCT mod] (puzzle: Same State 2) |  |  |  | 0.37 µM | 0.2 µM | 0.472 µM |
| AUAAUACAUGAGGAUCACCCAUGUAAUUUAACUUGUAAGAUCAAGGAUAUCAGCUCGUUUAGAGCUGAGAAGGUGAUCACAUGU [SSNG3/20-A3] (Eterna round: R96, puzzle: Same State NG 3) | 0.0602 µM |  |  |  |  |  |
| UUGUUUCGUCAUUAACAUGAGGAUCACCCAUGUAAAGAACCAGAGGAUAUGCAUGUUUGAUUGUAGCAGAAGGCUGAUUGUUGU [JR_SSNG3_Sub033] (Eterna round: R96, puzzle: Same State NG 3) | 0.0427 µM |  |  |  |  |  |
| UUGAAGAAUUAAGGAUAUUGAAUACAUAUGUUUAACAUGAGGAUCACCCAUGUGGGUUGCGGUAUCGAGAAGGUAAAUUAAAAG [Mat - Same State NG 2 - JL mod - D2] (Eterna round: R96, puzzle: Same State NG 2) | 0.179 µM | 0.142 µM | 0.131 µM |  |  |  |
| GUGGUCAGACAUGAGGAUCACCCAUGUGGAAUAAAUAAGGAGAAGGAUAUCGAAUAUAGGAUAUACGAGAAGGUUUGGUUGGUG (Eterna round: R96, puzzle: Same State NG 3) | 0.0673 µM | 0.12 µM | 0.0906 µM |  |  |  |
| GGAGCAGGGUGAGGAUAUGUAAAAUUCGAAAGGACAGAAGGCACUUAACCAACAUGAGGAUCACCCAUGUAGGCGACGGCACCA [Eternabot solution 8] (Eterna round: R96, puzzle: Same State NG 1) | 0.0199 µM |  |  |  |  |  |
| CGAUGUGAGUCAGGAUAUGGGUUAUCACUCCACAUGAGGAUCACCCAUGUAAAGAGGCCAAGGAGCCAGAAGGGACAUACAUCU [Zaorso] (Eterna round: R96, puzzle: Same State NG 2) | 0.0142 µM | 1.52 µM | 0.0508 µM |  |  |  |
| GUACAUAUCAGAGGAUAUCACGUCGAUUAGACGUGAGAAGGCUGAUCACACAUGAAUAUUAAUACAUGAGGAUCACCCAUGUAC [SSNG1/13-A2] (Eterna round: R96, puzzle: Same State NG 1) | 0.0285 µM | 0.0169 µM | 0.0372 µM |  |  |  |
